# Assay results published in publication PMC11606499, “Molecular principles of the assembly and construction of a carboxysome shell” (Science Advances, 2024).
# T1: CsoS4A (untagged, coexpressed with His-tagged CsoS4B) (Halothiobacillus neapolitanus c2, UniProt O85043 1-83)
# T1 construct: CsoS4A, Halothiobacillus neapolitanus c2; gene amplified from the cso-2 operon, the His tag stands on CsoS4B only; source: E. coli BL21 (DE3), pET-22b csoS4A-csoS4B, co-purified with His-tagged CsoS4B (Ni-NTA, Superdex 200)
# T1 sequence: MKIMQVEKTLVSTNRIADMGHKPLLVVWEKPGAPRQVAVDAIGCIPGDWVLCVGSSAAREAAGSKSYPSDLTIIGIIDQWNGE
# T2: C-terminal domain of CsoS2 (CsoS2-C) (Halothiobacillus neapolitanus c2, UniProt O85041 604-869)
# T2 construct: CsoS2, scaffolding/linker protein of the α-carboxysome, Halothiobacillus neapolitanus c2; source: E. coli BW25113, midi-shell operon or CsoS1C-based mini-shell operon, in purified shells
# T2 sequence (looked up): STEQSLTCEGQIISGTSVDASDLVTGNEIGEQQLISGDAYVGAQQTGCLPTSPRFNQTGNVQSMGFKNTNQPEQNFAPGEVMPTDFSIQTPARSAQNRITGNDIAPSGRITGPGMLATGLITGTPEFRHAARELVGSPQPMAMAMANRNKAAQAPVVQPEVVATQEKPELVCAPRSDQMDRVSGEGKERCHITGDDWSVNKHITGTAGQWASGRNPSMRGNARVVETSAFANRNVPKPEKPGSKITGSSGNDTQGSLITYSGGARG
# B1: CsoS1A (in recombinant α-carboxysome midi-shells) (natural protein, Halothiobacillus neapolitanus c2)
# chain: MADVTGIALGMIETRGLVPAIEAADAMTKAAEVRLVGRQFVGGGYVTVLVRGETGAVNAAVRAGADACERVGDGLVAAHIIARVHSEVENILPKAPQA
# notes: CsoS1A, hexameric shell protein of the α-carboxysome, Halothiobacillus neapolitanus c2; the gene as it stands in the midi-shell operon derived from the synthetic cso-2 operon; CsoS1A, CsoS1B and CsoS1C could not be told apart in the symmetrised maps; also called CsoS1 hexamer; BMC-H; source: E. coli BW25113, midi-shell operon (L-arabinose induced), in purified shells
# B2: CsoS1C (in the CsoS1C-based T = 9 mini-shell) (natural protein, Halothiobacillus neapolitanus c2)
# chain: MAAVTGIALGMIETRGLVPAIEAADAMTKAAEVRLVGRQFVGGGYVTVLVRGETGAVNAAVRAGADACERVGDGLVAAHIIARVHSEVENILPKAPEA
# notes: CsoS1C, shell hexamer paralog, Halothiobacillus neapolitanus c2; differs from CsoS1A at the 3rd and 97th amino acids; the gene as it stands in the mini-shell operon; source: E. coli BW25113, CsoS1C-based mini-shell operon, in purified shells
# B3: His-tagged CsoS1B (expressed alone or coexpressed with CsoS1A or CsoS1C) (natural protein, Halothiobacillus neapolitanus c2, UniProt P45690 1-110, looked up)
# chain: MATTHGIALGMIETRGLVPAIEAADAMTKAAEVRLVGRSFVGGGYVTVMVRGETGAVNAAVRAGADACERVGDGLVAAHIIARVHSEVEIILPETPEDSDSAWCIANLNS
# notes: CsoS1B, Halothiobacillus neapolitanus c2; gene fragment amplified from the cso-2 operon; Six copies when expressed alone; about 1.5 copies per hexamer in the coexpressed CsoS1A/B sample; source: E. coli BL21 (DE3), pET-22b, purified (Ni-NTA, Superdex 200); not shown: His tag, C-terminal, kept
# Legend:
# [1] = target: T1, CsoS4A (untagged, coexpressed with …); test: SEC + other: dynamic light scattering; Superdex 200 in 50 mM tris-HCl pH 8.0, 100 mM NaCl; DLS on DynaPro NanoStar, in triplicate; proteins expressed alone or coexpressed and purified by Ni-NTA through the His tag of one of them; conditions: both partners purified
# [2] = target: the molecule itself; test: SEC; Superdex 200 in 50 mM tris-HCl pH 8.0, 100 mM NaCl; individually expressed CsoS4 proteins
# [3] = target: B1; test: cryo-EM structure; purified midi-shells assembled in E. coli from the coexpressed proteins; T = 9, T = 9 Q = 12, T = 13, T = 16 and T = 19 shells at 2.3, 2.99, 2.93, 2.75 and 3.04 Å, symmetry imposed; conditions: both partners purified
# [4] = target: the molecule itself; test: as above
# [5] = target: B2; test: cryo-EM structure; purified CsoS1C-based T = 9 mini-shell assembled in E. coli from the coexpressed proteins; 1.8 Å; conditions: both partners purified
# [6] = target: T2, C-terminal domain of CsoS2 (CsoS2-C); test: cryo-EM structure; purified midi-shells assembled in E. coli from the coexpressed proteins; T = 9, T = 9 Q = 12, T = 13, T = 16 and T = 19 shells at 2.3, 2.99, 2.93, 2.75 and 3.04 Å, symmetry imposed; conditions: both partners purified
# [7] = target: the molecule itself; test: SEC + other: dynamic light scattering; Superdex 200 in 50 mM tris-HCl pH 8.0, 100 mM NaCl; DLS on DynaPro NanoStar, in triplicate; proteins expressed alone or coexpressed and purified by Ni-NTA through the His tag of one of them
# [8] = target: the molecule itself; test: cryo-EM structure; purified CsoS1C-based T = 9 mini-shell assembled in E. coli from the coexpressed proteins; 1.8 Å
# [9] = target: T2, C-terminal domain of CsoS2 (CsoS2-C); test: as above; conditions: both partners purified
# [10] = target: the molecule itself; test: crystal structure; crystals of the purified coexpressed CsoS1A and His-tagged CsoS1B sample, hanging drop, 18°C; 2.1 Å
# [11] = target: B3; test: SDS-PAGE of washed crystals; crystals of the coexpressed CsoS1A and His-tagged CsoS1B sample, washed with buffer for various times before SDS-PAGE; conditions: both partners purified
# [12] = target: B3; test: SEC + other: dynamic light scattering; Superdex 200 in 50 mM tris-HCl pH 8.0, 100 mM NaCl; DLS on DynaPro NanoStar, in triplicate; proteins expressed alone or coexpressed and purified by Ni-NTA through the His tag of one of them; conditions: both partners purified
binder,measurement,setting,value
"CsoS4B (C-terminal His tag; expressed alone or coexpressed with CsoS4A) (natural protein, Halothiobacillus neapolitanus c2, UniProt O85044 1-81, looked up, CsoS4B, Halothiobacillus neapolitanus c2; gene fragment amplified from the cso-2 operon; Five copies when expressed alone; source: E. coli BL21 (DE3), pET-22b, purified (Ni-NTA, Superdex 200)) MEVMRVRSDLIATRRIPGLKNISLRVMEDATGKVSVACDPIGVPEGCWVFTISGSAARFGVGDFEILTDLTIGGIIDHWVT",binding result,[1],binds
same,stoichiometry N,[2],5
"CsoS4A (in recombinant α-carboxysome shells) (natural protein, Halothiobacillus neapolitanus c2, CsoS4A, pentameric vertex protein of the α-carboxysome shell, Halothiobacillus neapolitanus c2; the gene as it stands in the shell operon; All pentamers of the shell models were assigned to CsoS4A; also called CsoS4 pentamer; BMC-P; source: E. coli BW25113, midi-shell operon or CsoS1C-based mini-shell operon, in purified shells) MKIMQVEKTLVSTNRIADMGHKPLLVVWEKPGAPRQVAVDAIGCIPGDWVLCVGSSAAREAAGSKSYPSDLTIIGIIDQWNGE",binding result,[3],binds
same,stoichiometry N,[4],5
same,binding result,[5],binds
"CsoS4A (individually expressed, C-terminal His tag) (natural protein, Halothiobacillus neapolitanus c2, CsoS4A, Halothiobacillus neapolitanus c2; gene fragment amplified from the cso-2 operon; In solution pentamers and other aggregation forms; source: E. coli BL21 (DE3), pET-22b, purified (Ni-NTA, Superdex 200)) MKIMQVEKTLVSTNRIADMGHKPLLVVWEKPGAPRQVAVDAIGCIPGDWVLCVGSSAAREAAGSKSYPSDLTIIGIIDQWNGE",stoichiometry N,[2],5
B1,stoichiometry N,[4],6
same,binding result,[6],binds
"His-tagged CsoS1A (individually expressed) (natural protein, Halothiobacillus neapolitanus c2, CsoS1A, Halothiobacillus neapolitanus c2; gene fragment amplified from the cso-2 operon; source: E. coli BL21 (DE3), pET-22b, purified (Ni-NTA, Superdex 200); not shown: His tag, C-terminal, kept) MADVTGIALGMIETRGLVPAIEAADAMTKAAEVRLVGRQFVGGGYVTVLVRGETGAVNAAVRAGADACERVGDGLVAAHIIARVHSEVENILPKAPQA",stoichiometry N,[7],6
"CsoS1C (individually expressed, C-terminal His tag) (natural protein, Halothiobacillus neapolitanus c2, CsoS1C, Halothiobacillus neapolitanus c2; gene fragment amplified from the cso-2 operon; source: E. coli BL21 (DE3), pET-22b, purified (Ni-NTA, Superdex 200)) MAAVTGIALGMIETRGLVPAIEAADAMTKAAEVRLVGRQFVGGGYVTVLVRGETGAVNAAVRAGADACERVGDGLVAAHIIARVHSEVENILPKAPEA",stoichiometry N,[7],6
B2,stoichiometry N,[8],6
same,binding result,[9],binds
"CsoS1A (untagged, coexpressed with His-tagged CsoS1B) (natural protein, Halothiobacillus neapolitanus c2, CsoS1A, Halothiobacillus neapolitanus c2; gene amplified from the cso-2 operon, the His tag stands on CsoS1B only; also called S1A-S1B (coexpressed sample); source: E. coli BL21 (DE3), pET-22b csoS1A-csoS1B, co-purified with His-tagged CsoS1B (Ni-NTA, Superdex 200)) MADVTGIALGMIETRGLVPAIEAADAMTKAAEVRLVGRQFVGGGYVTVLVRGETGAVNAAVRAGADACERVGDGLVAAHIIARVHSEVENILPKAPQA",stoichiometry N,[10],6
same,stoichiometry N,[11],~3 CsoS1A per CsoS1B
"CsoS1C (untagged, coexpressed with His-tagged CsoS1B) (natural protein, Halothiobacillus neapolitanus c2, CsoS1C, Halothiobacillus neapolitanus c2; gene amplified from the cso-2 operon, the His tag stands on CsoS1B only; source: E. coli BL21 (DE3), pET-22b csoS1C-csoS1B, co-purified with His-tagged CsoS1B (Ni-NTA, Superdex 200)) MAAVTGIALGMIETRGLVPAIEAADAMTKAAEVRLVGRQFVGGGYVTVLVRGETGAVNAAVRAGADACERVGDGLVAAHIIARVHSEVENILPKAPEA",binding result,[12],binds
B3,stoichiometry N,[7],6
